Experimental data reported in patent US9187525B2, “Methods of treating ophthalmic diseases using NPR-B agonists” (Shire Orphan Therapies GmbH, dated 2015).
Numbered stars: 1 amine (or outer) side, 2 acyl side, 3 side chain; on linkers, the order of the positions; unused ones are H or OH. Square brackets hold non-standard residues; d marks the D form. Primed or numbered codes have the meaning given here. Ends that are not written are not given here. * marks the point of attachment. 6182 = 5-Butyl-2H-pyrazole-3-carboxylic acid, CCCCc1cc(C(=O)*)[nH]n1; Pro(trans-4-NH2) = O=C([C@@H]1C[C@@H](N[*:3])CN1[*:1])[*:2]; Sni = (S)-nipecotic acid, O=C([C@H]1CCCN([*:1])C1)[*:2]; Egg = 2-Amino-3-piperidin-4-yl-propionic acid; Fhy = Amino-piperidin-3-yl-acetic acid; Hyp = O=C(O)[C@@H]1C[C@@H](O)CN1; NMeL = CN[C@@H](CC(C)C)C(=O)O; dDap(Me2)′ = not defined here; AR‑201‑48 = not defined here; AR‑201‑49 = not defined here; AR‑201‑54 = not defined here; Tle = CC(C)(C)[C@H](N)C(=O)O; dNle = CCCC[C@@H](N)C(=O)O; dOrn = NCCC[C@@H](N)C(=O)O; SH‑158 = not defined here; Octanoyl = CCCCCCCC(=O)*; Orn = NCCC[C@H](N)C(=O)O; Ac5c = NC1(C(=O)O)CCCC1; Hexanoyl = CCCCCC(=O)*; Oct = not defined here; Occ = octanoic acid; βAla = NCCC(=O)O

T1: natriuretic peptide receptor-B (human)
T1 chain: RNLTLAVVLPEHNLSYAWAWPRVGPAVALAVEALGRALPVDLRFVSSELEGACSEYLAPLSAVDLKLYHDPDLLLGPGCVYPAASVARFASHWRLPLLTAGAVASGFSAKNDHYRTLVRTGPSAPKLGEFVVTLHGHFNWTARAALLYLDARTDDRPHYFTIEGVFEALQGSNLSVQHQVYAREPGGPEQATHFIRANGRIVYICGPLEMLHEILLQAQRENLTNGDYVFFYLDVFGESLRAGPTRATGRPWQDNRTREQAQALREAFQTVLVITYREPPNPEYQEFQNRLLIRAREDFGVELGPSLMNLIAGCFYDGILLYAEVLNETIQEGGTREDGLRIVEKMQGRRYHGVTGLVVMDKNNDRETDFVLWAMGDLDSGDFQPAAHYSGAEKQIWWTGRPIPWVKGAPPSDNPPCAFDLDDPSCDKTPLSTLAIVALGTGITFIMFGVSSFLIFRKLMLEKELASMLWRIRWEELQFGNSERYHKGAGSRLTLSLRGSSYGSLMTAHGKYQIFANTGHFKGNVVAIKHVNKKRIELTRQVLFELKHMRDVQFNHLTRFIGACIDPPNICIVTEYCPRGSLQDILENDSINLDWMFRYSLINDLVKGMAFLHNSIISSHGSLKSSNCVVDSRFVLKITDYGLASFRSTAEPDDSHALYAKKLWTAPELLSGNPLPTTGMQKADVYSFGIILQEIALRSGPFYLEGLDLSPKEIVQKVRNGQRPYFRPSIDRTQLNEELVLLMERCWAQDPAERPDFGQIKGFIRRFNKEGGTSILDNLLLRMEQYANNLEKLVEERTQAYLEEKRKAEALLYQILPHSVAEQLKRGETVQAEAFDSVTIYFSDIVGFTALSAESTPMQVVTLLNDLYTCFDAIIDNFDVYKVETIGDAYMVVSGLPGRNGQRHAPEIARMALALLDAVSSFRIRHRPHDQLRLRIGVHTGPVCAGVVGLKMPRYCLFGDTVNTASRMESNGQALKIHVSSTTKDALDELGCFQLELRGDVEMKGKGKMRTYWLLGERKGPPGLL

B1: JAL-1283 (peptide)
peptide: Octanoyl-[dA]F[dL]L[Hyp][SH‑158]DRI-NH2
modifications: reading uncertain; also: printed as Occ-ala-Phe-leu-Leu-Hyp-(SH-158)-Asp-Arg-Ile-NH2
B2: JAL-1284 (peptide)
peptide: Octanoyl-[dA]F[dR]L[Hyp][SH‑158]DRI-NH2
modifications: reading uncertain; also: printed as Occ-ala-Phe-arg-Leu-Hyp-(SH-158)-Asp-Arg-Ile-NH2
B3: JAL-1292 (peptide)
peptide: [AR‑201‑49]F[dR]L[Hyp][NMeL]DRI-NH2
modifications: reading uncertain; also: printed as (AR-201-49)-Phe-arg-Leu-Hyp-Nml-Asp-Arg-Ile-NH2
B4: JAL-1294 (peptide)
peptide: [AR‑201‑49]F[dL]L[Hyp][NMeL]DRI-NH2
modifications: reading uncertain; also: printed as (AR-201-49)-Phe-leu-Leu-Hyp-Nml-Asp-Arg-Ile-NH2
B5: JAL-1316 (peptide)
peptide: [AR‑201‑54]F[dR]L[Hyp][NMeL]DRI-NH2
modifications: reading uncertain; also: printed as (AR-201-54)-Phe-arg-Leu-Hyp-Nml-Asp-Arg-Ile-NH2
B6: JAL-1324 (peptide)
peptide: XFRLXXDRI
HELM: PEPTIDE1{[CCCCCCCCS(=O)(=O)CCC(=O)[*:2]].F.[dR].L.[Hyp].[meL].D.R.I.[am]}$$$$V2.0; N-terminus assumed
SMILES: CCCCCCCCS(=O)(=O)CCC(=O)N[C@@H](Cc1ccccc1)C(=O)N[C@H](CCCNC(=N)N)C(=O)N[C@@H](CC(C)C)C(=O)N1C[C@H](O)C[C@H]1C(=O)N(C)[C@@H](CC(C)C)C(=O)N[C@@H](CC(=O)O)C(=O)N[C@@H](CCCNC(=N)N)C(=O)N[C@H](C(N)=O)[C@@H](C)CC

Molecular target: T1, natriuretic peptide receptor-B
Experiment: cell-based or functional assay

Row | Binder | EC50 group, cGMP in GTM-3 cells [µM]
1 | B1 | ≤ 1
2 | Hexanoyl-S[dA]FGLKLDRI-NH2 [JAL-0633] | ≤ 15
3 | B2 | ≤ 1
4 | XXFXLXXDRI (Occ-Sni-Phe-dap(Me2)-Leu-Hyp-Nml-Asp-Arg-Ile-NH2) [JAL-1287] | ≤ 1
5 | XAFXLXXDRI (Occ-ala-Phe-orn(Me2)-Leu-Hyp-Nml-Asp-Arg-Ile-NH2) [JAL-1288] | ≤ 1
6 | XXFXLXXDRI (Occ-Sni-Phe-orn(Me2)-Leu-Hyp-Nml-Asp-Arg-Ile-NH2) [JAL-1289] | ≤ 1
7 | [AR‑201‑48][dR]L[Hyp][NMeL]DRI-NH2 (reading uncertain; also: printed as (AR-201-48)-arg-Leu-Hyp-Nml-Asp-Arg-Ile-) [JAL-1291] | ≤ 15
8 | B3 | ≤ 5
9 | [AR‑201‑48][dL]L[Hyp][NMeL]DRI-NH2 (reading uncertain; also: printed as (AR-201-48)-leu-Leu-Hyp-Nml-Asp-Arg-Ile-) [JAL-1293] | ≤ 15
10 | B4 | ≤ 1
11 | Octanoyl-[Sni]F[dL]L[Pro(trans-4-NH2)][NMeL]DRI-NH2 [JAL-1295] | ≤ 1
12 | Octanoyl-[dA]F[dL]L[Pro(trans-4-NH2)][NMeL]DRI-NH2 [JAL-1296] | ≤ 1
13 | Hexanoyl-P[dA]FGLKLDRI-NH2 [JAL-0634] | ≤ 15
14 | Octanoyl-[Sni]F[dR]L[Hyp][NMeL]DRI-NH2 [JAL-1297] | ≤ 1
15 | 6182-[dA]F[dR]L[Hyp][NMeL]DRI-NH2 [JAL-1298] | ≤ 5
16 | Octanoyl-[Sni]F[dL]L[Hyp][NMeL]DRI-NH2 [JAL-1302] | ≤ 1
17 | Octanoyl-[dA]F[dR]L[Hyp][NMeL]DR[Tle]-NH2 [JAL-1305] | ≤ 1
18 | Octanoyl-[dA]F[dR]L[Hyp][NMeL]DR[Ac5c]-NH2 [JAL-1306] | ≤ 5
19 | XAFRLXXDRI (Occ-ala-Phe-arg-Leu-Hyp-Dap(Me2)-Asp-Arg-Ile-NH2) [JAL-1314] | ≤ 5
20 | XAFRXXXDRI (Occ-ala-Phe-arg-Dap(Me2)-Hyp-Nml-Asp-Arg-Ile-NH2) [JAL-1315] | ≤ 15
21 | B5 | ≤ 5

Row | Binder | EC50 group, cGMP in GTM-3 cells [µM]
22 | Octanoyl-[Sni]F[dR]L[Pro(trans-4-NH2)][NMeL]DRI-NH2 [JAL-1317] | ≤ 1
23 | Octanoyl-[Sni]F[dOrn]L[Pro(trans-4-NH2)][NMeL]DRI-NH2 [JAL-1318] | ≤ 1
24 | Hexanoyl-[dA][dA]FGLKLDRI-NH2 [JAL-0635] | ≤ 15
25 | Octanoyl-[Sni]F[dNle]L[Pro(trans-4-NH2)][NMeL]DRI-NH2 [JAL-1319] | ≤ 5
26 | [Occ][Sni]FGL[Pro(trans-4-NH2)][NMeL]DRI-NH2 [JAL-1320] | ≤ 1
27 | [Occ][Sni]F[dL]L[Pro(trans-4-NH2)](Ac)[NMeL]DRI-NH2 [JAL-1321] | ≤ 5
28 | [Occ][Sni]F[dL]L[Pro(trans-4-NH2)](Gly)[NMeL]DRI-NH2 [JAL-1322] | ≤ 1
29 | [Occ][Sni]F[dL]L[Pro(trans-4-NH2)](βAla)[NMeL]DRI-NH2 [JAL-1323] | ≤ 1
30 | B6 | ≤ 5
31 | [Occ][Sni]F[dDap(Me2)′]L[Pro(trans-4-NH2)][NMeL]DRI-NH2 [JAL-1325] | ≤ 1
32 | [Oct][Sni]F[dL]L[Pro(trans-4-NH2)][NMeL]DRI-NH2 (reading uncertain; also: printed as Oct-Sni-Phe-leu-Leu-Tap-Nml-Asp-Arg-Ile-NH2) [JAL-1326] | ≤ 1
33 | [Occ][dA]F[dR]L[Hyp][NMeL]D[Orn]I-NH2 [JAL-1327] | ≤ 5
34 | [Occ][dA]F[dL]L[Hyp][NMeL]D[Orn]I-NH2 [JAL-1328] | ≤ 5
35 | Hexanoyl-G[dP]FGLKLDRI-NH2 [JAL-0636] | ≤ 15
36 | [Occ][dA]F[dR]L[Hyp][NMeL]VRI-NH2 [JAL-1331] | ≤ 5
37 | [Occ][dA]F[dR]L[Hyp][NMeL]TRI-NH2 [JAL-1333] | ≤ 5
38 | [Occ][dA]F[dL]L[Hyp][NMeL]TRI-NH2 [JAL-1334] | ≤ 5
39 | [Occ][dA]F[dL]L[Hyp][NMeL]DR[Ac5c]-NH2 [JAL-1335] | ≤ 5
40 | [Occ][dA]F[Fhy]L[Hyp][NMeL]DRI-NH2 [JAL-1336] | ≤ 1
41 | [Occ][dA]F[Egg]L[Hyp][NMeL]DRI-NH2 [JAL-1337] | ≤ 5
